Laboratory results published in article PMC8660895, “Hedgehog-Interacting Protein is a multimodal antagonist of Hedgehog signalling” (Nature Communications, 2021).
“And” between values parts separate entries of the source, which are not always exact repeats. Equal values may be shown once.

How the values were obtained:
[1] = molecular target: T1, HHIP-N (Homo sapiens, UniProt Q96QV1); assay: isothermal titration calorimetry; format: binding; settings: pH 7.5, 25 °C, 150 mM NaCl, 3% isopropanol; PEG length and linkage of the conjugate not told
T1 construct: EndoF1-deglycosylated for crystals
T1 sequence (Q96QV1 39-209): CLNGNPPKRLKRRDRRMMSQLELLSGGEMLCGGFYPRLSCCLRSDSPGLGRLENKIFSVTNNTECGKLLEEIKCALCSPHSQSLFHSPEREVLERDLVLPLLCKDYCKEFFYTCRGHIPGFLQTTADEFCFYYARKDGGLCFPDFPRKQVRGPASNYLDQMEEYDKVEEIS

[2] = molecular target: T2, HHIP-C (Homo sapiens, UniProt Q96QV1); assay: X-ray crystallography (molecular replacement); format: binding; settings: co-crystallised with 10 mM SOS, pH 8.5; two SOS molecules per chain, same site as heparin
T2 construct: C-terminal domain (beta-propeller + 2 EGF repeats), residues 213-670, C-terminal His6 tag, HEK293T with kifunensine; EndoF1-deglycosylated for crystals; mostly monomer without GAG, anti-parallel dimer in crystal
T2 sequence (Q96QV1 213-670): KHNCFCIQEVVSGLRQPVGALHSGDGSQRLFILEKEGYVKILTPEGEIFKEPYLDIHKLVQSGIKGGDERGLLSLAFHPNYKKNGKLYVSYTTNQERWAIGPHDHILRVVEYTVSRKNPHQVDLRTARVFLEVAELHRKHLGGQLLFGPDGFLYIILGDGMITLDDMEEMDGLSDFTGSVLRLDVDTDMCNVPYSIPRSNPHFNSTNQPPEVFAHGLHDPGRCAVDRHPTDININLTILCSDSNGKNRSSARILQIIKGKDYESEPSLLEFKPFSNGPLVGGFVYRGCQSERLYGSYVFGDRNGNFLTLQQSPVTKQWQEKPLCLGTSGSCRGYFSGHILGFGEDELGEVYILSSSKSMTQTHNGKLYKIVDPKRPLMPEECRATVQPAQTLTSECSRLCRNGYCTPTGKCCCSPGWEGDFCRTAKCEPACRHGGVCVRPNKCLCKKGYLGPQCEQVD

[3] = molecular target: HHIP N-terminal domain (HHIP-N) (human) (UniProt Q96QV1); assay: SEC-MALS; HHIP-N on S200 10/30 column; 10 mM HEPES pH 7.5, 150 mM NaCl; 48–192 μM injected
[4] = molecular target: chondroitin sulphate (CS); assay: SPR; settings: GAGs immobilised on the chip; [HHIP-C] 0-40 µM; parent: 0.7 µM
[5] = molecular target: heparan sulphate (HS); assay: SPR; settings: GAGs immobilised on the chip; [HHIP-C] 0-40 µM; parent: 0.5 µM
[6] = molecular target: heparin; assay: SPR; settings: GAGs immobilised on the chip; [HHIP-C] 0-40 µM; parent: 0.2 µM
[7] = molecular target: the molecule itself; assay: AUC; sedimentation velocity; HHIP-C alone at 1 mg/mL; 10 mM HEPES pH 7.5, 120 mM NaCl; 20 °C; c(s) distributions

With PEG-cholesterol the Kd [1] was 23 µM.

For `O=S(=O)(O)OC[C@H]1O[C@@](COS(=O)(=O)O)(O[C@H]2O[C@H](COS(=O)(=O)O)[C@@H](OS(=O)(=O)O)[C@H](OS(=O)(=O)O)[C@H]2OS(=O)(=O)O)[C@@H](OS(=O)(=O)O)[C@@H]1OS(=O)(=O)O` [sucrose octasulphate], the “X-ray crystallography (molecular replacement)” value [2] was “We also determined the crystal structure of a HHIP-C:SOS complex”.

“HHIP N-terminal domain (HHIP-N) (from UniProt Q96QV1 39-209) (domain or fragment)” was tested, and the stoichiometry N [3] was 2.

Work on “HHIP C-terminal domain (HHIP-C) (from UniProt Q96QV1) K277E; R328E; R350E; K569E; R610E; R613E” yielded a Kd [4] of 30 µM, a Kd [5] of 40 µM and a Kd [6] of 110 µM.

B1: HHIP C-terminal domain (HHIP-C) (domain or fragment, human, UniProt Q96QV1 213-670, looked up)
chain: KHNCFCIQEVVSGLRQPVGALHSGDGSQRLFILEKEGYVKILTPEGEIFKEPYLDIHKLVQSGIKGGDERGLLSLAFHPNYKKNGKLYVSYTTNQERWAIGPHDHILRVVEYTVSRKNPHQVDLRTARVFLEVAELHRKHLGGQLLFGPDGFLYIILGDGMITLDDMEEMDGLSDFTGSVLRLDVDTDMCNVPYSIPRSNPHFNSTNQPPEVFAHGLHDPGRCAVDRHPTDININLTILCSDSNGKNRSSARILQIIKGKDYESEPSLLEFKPFSNGPLVGGFVYRGCQSERLYGSYVFGDRNGNFLTLQQSPVTKQWQEKPLCLGTSGSCRGYFSGHILGFGEDELGEVYILSSSKSMTQTHNGKLYKIVDPKRPLMPEECRATVQPAQTLTSECSRLCRNGYCTPTGKCCCSPGWEGDFCRTAKCEPACRHGGVCVRPNKCLCKKGYLGPQCEQVD
notes: Cloned in pHLsec; For crystallisation the protein was deglycosylated with endoglycosidase F1; also called HHIP-C WT; apo HHIP-C; source: HEK293T, transient transfection with kifunensine, purified from conditioned medium (HisTrap, SEC)
For B1, the “stoichiometry N” value [7] was 2 and 3.
